In the supplement of paper PMC11316812:
± gives the standard deviation of the averaged measurements.

Tests used:
MCF7 = assay: percentage of EdU-negative (G0-arrested) nuclei per well, 72 h; higher = more G0 arrest; conditions: reference: sequence is the full UniProt precursor, the tested protein was the secreted form or ectodomain
hTERT-HMEC = assay: as above; conditions: reference: sequence is the full UniProt precursor, the tested protein was the secreted form or ectodomain
[1] = protein concentration 0.00828571 µM
[2] = protein concentration 0.0828571 µM
[3] = protein concentration 0.03125 µM
[4] = protein concentration 0.3125 µM
[5] = protein concentration 0.0277143 µM
[6] = protein concentration 0.277143 µM
[7] = protein concentration 0.00669 µM
[8] = protein concentration 0.0669 µM
[9] = protein concentration 0.0225 µM
[10] = protein concentration 0.00775 µM
[11] = protein concentration 0.0775 µM
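Further: secreted proteins added to cultured cells, EdU pulse at the end, nuclei found by Hoechst imaging, EdU status from nuclear versus surrounding ring intensity ratio, PBS as neutral control.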

Sequence | percentage of EdU-negative (MCF7; [9]) [%] | percentage of EdU-negative (MCF7; protein concentration 0.225 µM) [%] | percentage of EdU-negative (hTERT-HMEC; [9]) [%] | percentage of EdU-negative (hTERT-HMEC; protein concentration 0.225 µM) [%] | other results
MAPRTLWSCYLCCLLTAAAGAASYPPRGFSLYTGSSGALSPGGPQAQIAPRPASRHRNWCAYVVTRTVSCVLEDGVETYVKYQPCAWGQPQCPQSIMYRRFLRPRYRVAYKTVTDMEWRCCQGYGGDDCAESPAPALGPASSTPRPLARPARPNLSGSSAGSPLSGLGGEGPGESEKVQQLEEQVQSLTKELQGLRGVLQGLSGRLAEDVQRAVETAFNGRQQPADAAARPGVHETLNEIQHQLQLLDTRVSTHDQELGHLNNHHGGSSSSGGSRAPAPASAPPGPSEELLRQLEQRLQESCSVCLAGLDGFRRQQQEDRERLRAMEKLLASVEERQRHLAGLAVGRRPPQECCSPELGRRLAELERRLDVVAGSVTVLSGRRGTELGGAAGQGGHPPGYTSLASRLSRLEDRFNSTLGPSEEQEESWPGAPGGLSHWLPAARGRLEQLGGLLANVSGELGGRLDLLEEQVAGAMQACGQLCSGAPGEQDSQVSEILSALERRVLDSEGQLRLVGSGLHTVEAAGEARQATLEGLQEVVGRLQDRVDAQDETAAEFTLRLNLTAARLGQLEGLLQAHGDEGCGACGGVQEELGRLRDGVERCSCPLLPPRGPGAGPGVGGPSRGPLDGFSVFGGSSGSALQALQGELSEVILSFSSLNDSLNELQTTVEGQGADLADLGATKDRIISEINRLQQEATEHATESEERFRGLEEGQAQAGQCPSLEGRLGRLEGVCERLDTVAGGLQGLREGLSRHVAGLWAGLRETNTTSQMQAALLEKLVGGQAGLGRRLGALNSSLQLLEDRLHQLSLKDLTGPAGEAGPPGPPGLQGPPGPAGPPGSPGKDGQEGPIGPPGPQGEQGVEGAPAAPVPQVAFSAALSLPRSEPGTVPFDRVLLNDGGYYDPETGVFTAPLAGRYLLSAVLTGHRHEKVEAVLSRSNQGVARVDSGGYEPEGLENKPVAESQPSPGTLGVFSLILPLQAGDTVCVDLVMGQLAHSEEPLTIFSGALLYGDPELEHA [A0A0C4DFX3] |  |  |  |  | percentage of EdU-negative (MCF7; [1]): 26.3 ± 1.3%; percentage of EdU-negative (MCF7; [2]): 30.4 ± 3.6%; percentage of EdU-negative (hTERT-HMEC; [1]): 4.9 ± 0.43%; percentage of EdU-negative (hTERT-HMEC; [2]): 4.36 ± 0.72%
MAPSSPRPALPALLVLLGALFPGPGNAQTSVSPSKVILPRGGSVLVTCSTSCDQPKLLGIETPLPKKELLLPGNNRKVYELSNVQEDSQPMCYSNCPDGQSTAKTFLTVYWTPERVELAPLPSWQPVGKNLTLRCQVEGGAPRANLTVVLLRGEKELKREPAVGEPAEVTTTVLVRRDHHGANFSCRTELDLRPQGLELFENTSAPYQLQTFVLPATPPQLVSPRVLEVDTQGTVVCSLDGLFPVSEAQVHLALGDQRLNPTVTYGNDSFSAKASVSVTAEDEGTQRLTCAVILGNQSQETLQTVTIYSFPAPNVILTKPEVSEGTEVTVKCEAHPRAKVTLNGVPAQPLGPRAQLLLKATPEDNGRSFSCSATLEVAGQLIHKNQTRELRVLYGPRLDERDCPGNWTWPENSQQTPMCQAWGNPLPELKCLKDGTFPLPIGESVTVTRDLEGTYLCRARSTQGEVTRKVTVNVLSPRYEIVIITVVAAAVIMGTAGLSTYLYNRQRKIKKYRLQQAQKGTPMKPNTQATPP |  |  |  |  | percentage of EdU-negative (MCF7; [3]): 24.7 ± 1.5%; percentage of EdU-negative (MCF7; [4]): 24.2 ± 3.4%; percentage of EdU-negative (hTERT-HMEC; [3]): 5 ± 0.26%; percentage of EdU-negative (hTERT-HMEC; [4]): 5.68 ± 0.88%
MAPVAVWAALAVGLELWAAAHALPAQVAFTPYAPEPGSTCRLREYYDQTAQMCCSKCSPGQHAKVFCTKTSDTVCDSCEDSTYTQLWNWVPECLSCGSRCSSDQVETQACTREQNRICTCRPGWYCALSKQEGCRLCAPLRKCRPGFGVARPGTETSDVVCKPCAPGTFSNTTSSTDICRPHQICNVVAIPGNASMDAVCTSTSPTRSMAPGAVHLPQPVSTRSQHTQPTPEPSTAPSTSFLLPMGPSPPAEGSTGDFALPVGLIVGVTALGLLIIGVVNCVIMTQVKKKPLCLQREAKVPHLPADKARGTQGPEQQHLLITAPSSSSSSLESSASALDRRAPTRNQPQAPGVEASGAGEARASTGSSDSSPGGHGTQVNVTCIVNVCSSSDHSSQCSSQASSTMGDTDSSPSESPKDEQVPFSKEECAFRSQLETPETLLGSTEEKPLPLGVPDAGMKPS |  |  |  |  | percentage of EdU-negative (MCF7; [5]): 22.2 ± 1.9%; percentage of EdU-negative (MCF7; [6]): 23.6 ± 1.1%; percentage of EdU-negative (hTERT-HMEC; [5]): 5.56 ± 0.29%; percentage of EdU-negative (hTERT-HMEC; [6]): 6.09 ± 1.2%
MAQHGAMGAFRALCGLALLCALSLGQRPTGGPGCGPGRLLLGTGTDARCCRVHTTRCCRDYPGEECCSEWDCMCVQPEFHCGDPCCTTCRHHPCPPGQGVQSQGKFSFGFQCIDCASGTFSGGHEGHCKPWTDCTQFGFLTVFPGNKTHNAVCVPGSPPAEPLGWLTVVLLAVAACVLLLTSAQLGLHIWQLRSQCMWPRETQLLLEVPPSTEDARSCQFPEEERGERSAEEKGRLGDLWV [Q9Y5U5] |  |  |  |  | percentage of EdU-negative (MCF7; [7]): 24.9 ± 1.6%; percentage of EdU-negative (MCF7; [8]): 23.9 ± 0.75%; percentage of EdU-negative (hTERT-HMEC; [7]): 5.37 ± 0.9%; percentage of EdU-negative (hTERT-HMEC; [8]): 6.01 ± 1.5%
MAQHHLWILLLCLQTWPEAAGKDSEIFTVNGILGESVTFPVNIQEPRQVKIIAWTSKTSVAYVTPGDSETAPVVTVTHRNYYERIHALGPNYNLVISDLRMEDAGDYKADINTQADPYTTTKRYNLQIYRRLGKPKITQSLMASVNSTCNVTLTCSVEKEEKNVTYNWSPLGEEGNVLQIFQTPEDQELTYTCTAQNPVSNNSDSISARQLCADIAMGFRTHHTGLLSVLAMFFLLVLILSSVFLFRLFKRRQGRIFPEGSCLNTFTKNPYAASKKTIYTYIMASRNTQPAESRIYDEILQSKVLPSKEEPVNTVYSEVQFADKMGKASTQDSKPPGTSSYEIVI [Q9UIB8] | 27.3 ± 3 | 26.8 ± 1.5 | 4.54 ± 0.35 | 5.92 ± 0.51 | 
MAQLCGLRRSRAFLALLGSLLLSGVLAADRERSIHDFCLVSKVVGRCRASMPRWWYNVTDGSCQLFVYGGCDGNSNNYLTKEECLKKCATVTENATGDLATSRNAADSSVPSAPRRQDSEDHSSDMFNYEEYCTANAVTGPCRASFPRWYFDVERNSCNNFIYGGCRGNKNSYRSEEACMLRCFRQQENPPLPLGSKVVVLAGLFVMVLILFLGASMVYLIRVARRNQERALRTVWSSGDDKEQLVKNTYVL | 24.2 ± 2 | 25.4 ± 0.69 | 4.91 ± 0.26 | 5.37 ± 0.98 | 
MAQLWLSCFLLPALVVSVAANVAPKFLANMTSVILPEDLPVGAQAFWLVAEDQDNDPLTYGMSGPNAYFFAVTPKTGEVKLASALDYETLYTFKVTISVSDPYIQVQREMLVIVEDRNDNAPVFQNTAFSTSINETLPVGSVVFSVLAVDKDMGSAGMVVYSIEKVIPSTGDSEHLFRILANGSIVLNGSLSYNNKSAFYQLELKACDLGGMYHNTFTIQCSLPVFLSISVVDQPDLDPQFVREFYSASVAEDAAKGTSVLTVEAVDGDKGINDPVIYSISYSTRPGWFDIGADGVIRVNGSLDREQLLEADEEVQLQVTATETHLNIYGQEAKVSIWVTVRVMDVNDHKPEFYNCSLPACTFTPEEAQVNFTGYVDEHASPRIPIDDLTMVVYDPDKGSNGTFLLSLGGPDAEAFSVSPERAVGSASVQVLVRVSALVDYERQTAMAVQVVATDSVSQNFSVAMVTIHLRDINDHRPTFPQSLYVLTVPEHSATGSVVTDSIHATDPDTGAWGQITYSLLPGNGADLFQVDPVSGTVTVRNGELLDRESQAVYYLTLQATDGGNLSSSTTLQIHLLDINDNAPVVSGSYNIFVQEEEGNVSVTIQAHDNDEPGTNNSRLLFNLLPGPYSHNFSLDPDTGLLRNLGPLDREAIDPALEGRIVLTVLVSDCGEPVLGTKVNVTITVEDINDNLPIFNQSSYNFTVKEEDPGVLVGVVKAWDADQTEANNRISFSLSGSGANYFMIRGLVLGAGWAEGYLRLPPDVSLDYETQPVFNLTVSAENPDPQGGETIVDVCVNVKDVNDNPPTLDVASLRGIRVAENGSQHGQVAVVVASDVDTSAQLEIQLVNILCTKAGVDVGSLCWGWFSVAANGSVYINQSKAIDYEACDLVTLVVRACDLATDPGFQAYSNNGSLLITIEDVNDNAPYFLPENKTFVIIPELVLPNREVASVRARDDDSGNNGVILFSILRVDFISKDGATIPFQGVFSIFTSSEADVFAGSIQPVTSLDSTLQGTYQVTVQARDRPSLGPFLEATTTLNLFTVDQSYRSRLQFSTPKEEVGANRQAINAALTQATRTTVYIVDIQDIDSAARARPHSYLDAYFVFPNGSALTLDELSVMIRNDQDSLTQLLQLGLVVLGSQESQESDLSKQLISVIIGLGVALLLVLVIMTMAFVCVRKSYNRKLQAMKAAKEARKTAAGVMPSAPAIPGTNMYNTERANPMLNLPNKDLGLEYLSPSNDLDSVSVNSLDDNSVDVDKNSQEIKEHRPPHTPPEPDPEPLSVVLLGRQAGASGQLEGPSYTNAGLDTTDL [Q9BYE9] | 26.56 ± 0.19 | 26.4 ± 2.1 | 4.86 ± 0.083 | 7.42 ± 0.98 | 
MAQRCVCVLALVAMLLLVFPTVSRSMGPRSGEHQRASRIPSQFSKEERVAMKEALKGAIQIPTVTFSSEKSNTTALAEFGKYIHKVFPTVVSTSFIQHEVVEEYSHLFTIQGSDPSLQPYLLMAHFDVVPAPEEGWEVPPFSGLERDGIIYGRGTLDDKNSVMALLQALELLLIRKYIPRRSFFISLGHDEESSGTGAQRISALLQSRGVQLAFIVDEGGFILDDFIPNFKKPIALIAVSEKGSMNLMLQVNMTSGHSSAPPKETSIGILAAAVSRLEQTPMPIIFGSGTVVTVLQQLANEFPFPVNIILSNPWLFEPLISRFMERNPLTNAIIRTTTALTIFKAGVKFNVIPPVAQATVNFRIHPGQTVQEVLELTKNIVADNRVQFHVLSAFDPLPVSPSDDKALGYQLLRQTVQSVFPEVNITAPVTSIGNTDSRFFTNLTTGIYRFYPIYIQPEDFKRIHGVNEKISVQAYETQVKFIFELIQNADTDQEPVSHLHKL [Q6GTS8] | 28 ± 2 | 24.4 ± 2.8 | 4.69 ± 0.48 | 5.33 ± 0.14 | 
MAQRMTTQLLLLLVWVAVVGEAQTRIAWARTELLNVCMNAKHHKEKPGPEDKLHEQCRPWRKNACCSTNTSQEAHKDVSYLYRFNWNHCGEMAPACKRHFIQDTCLYECSPNLGPWIQQVDQSWRKERVLNVPLCKEDCEQWWEDCRTSYTCKSNWHKGWNWTSGFNKCAVGAACQPFHFYFPTPTVLCNEIWTHSYKVSNYSRGSGRCIQMWFDPAQGNPNEEVARFYAAAMSGAGPWAAWPFLLSLALMLLWLLS | 25.4 ± 1.9 | 24.4 ± 0.58 | 15.7 ± 0.18 | 10.3 ± 8.7 | 
MAQSRVLLLLLLLPPQLHLGPVLAVRAPGFGRSGGHSLSPEENEFAEEEPVLVLSPEEPGPGPAAVSCPRDCACSQEGVVDCGGIDLREFPGDLPEHTNHLSLQNNQLEKIYPEELSRLHRLETLNLQNNRLTSRGLPEKAFEHLTNLNYLYLANNKLTLAPRFLPNALISVDFAANYLTKIYGLTFGQKPNLRSVYLHNNKLADAGLPDNMFNGSSNVEVLILSSNFLRHVPKHLPPALYKLHLKNNKLEKIPPGAFSELSSLRELYLQNNYLTDEGLDNETFWKLSSLEYLDLSSNNLSRVPAGLPRSLVLLHLEKNAIRSVDANVLTPIRSLEYLLLHSNQLREQGIHPLAFQGLKRLHTVHLYNNALERVPSGLPRRVRTLMILHNQITGIGREDFATTYFLEELNLSYNRITSPQVHRDAFRKLRLLRSLDLSGNRLHTLPPGLPRNVHVLKVKRNELAALARGALVGMAQLRELYLTSNRLRSRALGPRAWVDLAHLQLLDIAGNQLTEIPEGLPESLEYLYLQNNKISAVPANAFDSTPNLKGIFLRFNKLAVGSVVDSAFRRLKHLQVLDIEGNLEFGDISKDRGRLGKEKEEEEEEEEEEEETR [Q7Z5L7] |  |  |  |  | percentage of EdU-negative (MCF7; [10]): 24.5 ± 1.1%; percentage of EdU-negative (MCF7; [11]): 23.2 ± 0.88%; percentage of EdU-negative (hTERT-HMEC; [10]): 4.64 ± 0.6%; percentage of EdU-negative (hTERT-HMEC; [11]): 5.72 ± 1.3%
